Results taken from US20240117018A1.

Assays:
Experiment in all cases: cell-based or functional assay
[1] = biological target: Q842.d12 Env pseudovirus (HIV-1)
[2] = biological target: REJO4541.67 Env pseudovirus (HIV-1)
[3] = biological target: 1054_07_TC4_1499 Env pseudovirus (HIV-1)
[4] = biological target: Q769.d22 Env pseudovirus (HIV-1)
[5] = biological target: ZM109F.PB4 Env pseudovirus (HIV-1)
[6] = biological target: T257-31 Env pseudovirus (HIV-1)
[7] = biological target: THRO4156.18 Env pseudovirus (HIV-1)
[8] = biological target: 928-28 Env pseudovirus (HIV-1)
[9] = biological target: 0260.v5.c36 Env pseudovirus (HIV-1)
[10] = biological target: HIV-16845-2.22 Env pseudovirus (HIV-1)
[11] = biological target: WEAU_d15_410_787 Env pseudovirus (HIV-1)
[12] = biological target: CNE20 Env pseudovirus (HIV-1)
[13] = biological target: HIV-0013095-2.11 Env pseudovirus (HIV-1)
[14] = biological target: MuLV envelope (negative control pseudovirus) (MuLV)
[15] = biological target: 62357_14_D3_4589 Env pseudovirus (HIV-1)
[16] = biological target: 1394C9G1(Rev-) Env pseudovirus (HIV-1)
[17] = biological target: 1006_11_C3_1601 Env pseudovirus (HIV-1)
[18] = biological target: SC422661.8 Env pseudovirus (HIV-1)
[19] = biological target: 191955_A11 Env pseudovirus (HIV-1)
[20] = biological target: HIV-16055-2.3 Env pseudovirus (HIV-1)
[21] = biological target: CAAN5342.A2 Env pseudovirus (HIV-1)
[22] = biological target: Du172.17 Env pseudovirus (HIV-1)
[23] = biological target: AC10.0.29 Env pseudovirus (HIV-1)
[24] = biological target: Q461.e2 Env pseudovirus (HIV-1)
[25] = biological target: 249M B10 Env pseudovirus (HIV-1)
[26] = biological target: CNE53 Env pseudovirus (HIV-1)
[27] = biological target: 6244_13_B5_4576 Env pseudovirus (HIV-1)
[28] = biological target: Q23.17 Env pseudovirus (HIV-1)
[29] = biological target: HIV-001428-2.42 Env pseudovirus (HIV-1)
[30] = biological target: 1056_10_TA11_1826 Env pseudovirus (HIV-1)
[31] = biological target: Ce0682_E4 Env pseudovirus (HIV-1)
[32] = biological target: BF1266.431a Env pseudovirus (HIV-1)
[33] = biological target: Ce2010_F5 Env pseudovirus (HIV-1)
[34] = biological target: CNE58 Env pseudovirus (HIV-1)
[35] = biological target: ZM53M.PB12 Env pseudovirus (HIV-1)

B1: N49P22 (antibody, V domains shown)
V domain 1: HIQLLQSGPQVKKSGDTVRISCETSGYNFVDSRIHWVRQTPEKRLRWMGWINPLQGGVNYAPEFQGRIRMTRDTFIDTVYVDLSGLTPADTAYYYCARGIDGKSYPFHFWGHGTRVTVFS
V domain 2: RFALTQPASVSGSPGQTITITCAGGSVSWFHFPPGKTPRLIIYESSKRPSGVSPRFSGSQSGSTASLIISGLQSDDEGTYFCSILEFFGRGTLVTVLS
- IC50 [1]: 0.079 µg/mL
- IC80 [1]: 0.359 µg/mL
- MPI [1]: 100
- IC50 [2]: 0.792 µg/mL
- IC80 [2]: 12.1 µg/mL
- MPI [2]: 84
- IC50 [3]: 0.654 µg/mL
- IC80 [3]: 2.89 µg/mL
- MPI [3]: 100
- IC50 [4]: 0.043 µg/mL
- IC80 [4]: 0.259 µg/mL
- MPI [4]: 100
- IC50 [5]: > 50 µg/mL
- IC80 [5]: > 50 µg/mL
- MPI [5]: 1
- IC50 [6]: > 50 µg/mL
- IC80 [6]: > 50 µg/mL
- MPI [6]: 43
- IC50 [7]: > 50 µg/mL
- IC80 [7]: > 50 µg/mL
- MPI [7]: 32
- IC50 [8]: > 50 µg/mL
- IC80 [8]: > 50 µg/mL
- MPI [8]: 32
- IC50 [9]: 1.67 µg/mL
- IC80 [9]: 14.4 µg/mL
- MPI [9]: 93
- IC50 [10]: 4.6 µg/mL
- IC80 [10]: 41.9 µg/mL
- MPI [10]: 87
- IC50 [11]: 1.54 µg/mL
- IC80 [11]: > 50 µg/mL
- MPI [11]: 76
- IC50 [12]: > 50 µg/mL
- IC80 [12]: > 50 µg/mL
- MPI [12]: 18
- IC50 [13]: > 50 µg/mL
- IC80 [13]: > 50 µg/mL
- MPI [13]: 9
- IC50 [14]: > 50 µg/mL
- IC80 [14]: > 50 µg/mL
- MPI [14]: 8
- IC50 [15]: > 50 µg/mL
- IC80 [15]: > 50 µg/mL
- MPI [15]: 13
- IC50 [16]: > 50 µg/mL
- IC80 [16]: > 50 µg/mL
- MPI [16]: 35
- IC50 [17]: 0.898 µg/mL
- IC80 [17]: 14.7 µg/mL
- MPI [17]: 83
- IC50 [18]: 0.12 µg/mL
- IC80 [18]: 0.544 µg/mL
- MPI [18]: 100
- IC50 [19]: > 50 µg/mL
- IC80 [19]: > 50 µg/mL
- MPI [19]: 9
- IC50 [20]: 4.66 µg/mL
- IC80 [20]: 39.7 µg/mL
- MPI [20]: 83
- IC50 [21]: 0.425 µg/mL
- IC80 [21]: 1.88 µg/mL
- MPI [21]: 99
- IC50 [22]: > 50 µg/mL
- IC80 [22]: > 50 µg/mL
- MPI [22]: 4
- IC50 [23]: > 50 µg/mL
- IC80 [23]: > 50 µg/mL
- MPI [23]: 0
- IC50 [24]: 11.2 µg/mL
- IC80 [24]: > 50 µg/mL
- MPI [24]: 66
- IC50 [25]: > 50 µg/mL
- IC80 [25]: > 50 µg/mL
- MPI [25]: 4
- IC50 [26]: 0.779 µg/mL
- IC80 [26]: 5.11 µg/mL
- MPI [26]: 93
- IC50 [27]: 0.565 µg/mL
- IC80 [27]: 2.48 µg/mL
- MPI [27]: 97
- IC50 [28]: 0.321 µg/mL
- IC80 [28]: 2.4 µg/mL
- MPI [28]: 96
- IC50 [29]: 0.73 µg/mL
- IC80 [29]: 7.1 µg/mL
- MPI [29]: 91
- IC50 [30]: 2.99 µg/mL
- IC80 [30]: > 50 µg/mL
- MPI [30]: 69
- IC50 [31]: 1.13 µg/mL
- IC80 [31]: > 50 µg/mL
- MPI [31]: 75
- IC50 [32]: > 50 µg/mL
- IC80 [32]: > 50 µg/mL
- MPI [32]: 0
- IC50 [33]: 2.05 µg/mL
- IC80 [33]: 11.7 µg/mL
- MPI [33]: 93
- IC50 [34]: 28.4 µg/mL
- IC80 [34]: > 50 µg/mL
- MPI [34]: 57
- IC50 [35]: 1.2 µg/mL
- IC80 [35]: 11.8 µg/mL
- MPI [35]: 91
